Columns and labels:
c-Src SH2 = assay: SH2 binding enrichment of the phosphorylated peptide, bacterial display (enrichment ratio); higher = better substrate or ligand; peptides without Tyr show the background
Grb2 SH2 = Grb2 SH2 (UniProt P62993); assay: as above
SHP2-C SH2 = assay: as above
Fes = Fes (UniProt P07332); assay: phosphorylation enrichment, bacterial display (enrichment ratio); higher = better substrate or ligand; peptides without Tyr show the background
Jak2 = Jak2 (UniProt O60674); assay: as above
Hck = Hck (UniProt P08631); assay: as above
FGFR3 = FGFR3 (UniProt P22607); assay: as above
AncSZ = assay: as above
EPHB1 = EPHB1 (UniProt P54762); assay: as above
c-Abl (mouse) = assay: as above
c-Src = assay: as above
Fyn = Fyn (UniProt P06241); assay: as above
FGFR1 = FGFR1 (UniProt P11362); assay: as above
EPHB2 = EPHB2 (UniProt P29323); assay: as above
MERTK = MERTK (UniProt Q12866); assay: as above
Fer (mouse) = assay: as above
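Throughout, for SH2 binding enrichment of the phosphorylated peptide, bacterial display: peptide library displayed on the E. coli surface as eCPX fusions, selected cells deep-sequenced, score is each peptide's frequency after selection divided by its frequency in the input.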
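Throughout, for phosphorylation enrichment, bacterial display: 11-residue human phosphosite peptides and single-mutation variants displayed on the E. coli surface, counted by deep sequencing, each peptide's frequency after selection divided by its frequency in the unselected input library; frequency after pTyr selection over input frequency; kinase dosed for 20-30% of maximal phosphorylation in three min.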

Fes, sequence (P07332 whole entry, looked up): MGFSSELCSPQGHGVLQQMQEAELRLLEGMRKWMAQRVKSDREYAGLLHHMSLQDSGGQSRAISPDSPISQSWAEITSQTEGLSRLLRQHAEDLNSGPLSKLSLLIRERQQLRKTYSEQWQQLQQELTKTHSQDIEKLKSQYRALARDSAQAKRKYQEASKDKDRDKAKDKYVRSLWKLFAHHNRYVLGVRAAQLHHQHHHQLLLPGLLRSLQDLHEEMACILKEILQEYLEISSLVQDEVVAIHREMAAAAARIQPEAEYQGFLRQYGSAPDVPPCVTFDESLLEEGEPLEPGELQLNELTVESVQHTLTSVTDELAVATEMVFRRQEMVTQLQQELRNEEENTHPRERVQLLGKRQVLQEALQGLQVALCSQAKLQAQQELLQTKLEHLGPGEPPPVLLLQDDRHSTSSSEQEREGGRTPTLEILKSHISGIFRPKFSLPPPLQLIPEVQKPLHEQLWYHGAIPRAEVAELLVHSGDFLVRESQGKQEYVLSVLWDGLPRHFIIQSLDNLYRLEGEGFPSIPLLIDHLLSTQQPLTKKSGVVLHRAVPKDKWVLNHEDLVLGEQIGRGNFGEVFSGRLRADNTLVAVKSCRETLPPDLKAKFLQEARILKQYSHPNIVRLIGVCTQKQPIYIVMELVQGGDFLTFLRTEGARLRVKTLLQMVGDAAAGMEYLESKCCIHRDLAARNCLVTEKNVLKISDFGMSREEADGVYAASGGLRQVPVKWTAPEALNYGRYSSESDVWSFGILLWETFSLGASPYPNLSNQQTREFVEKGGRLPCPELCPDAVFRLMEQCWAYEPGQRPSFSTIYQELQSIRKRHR
EPHB1, sequence (P54762 whole entry, looked up): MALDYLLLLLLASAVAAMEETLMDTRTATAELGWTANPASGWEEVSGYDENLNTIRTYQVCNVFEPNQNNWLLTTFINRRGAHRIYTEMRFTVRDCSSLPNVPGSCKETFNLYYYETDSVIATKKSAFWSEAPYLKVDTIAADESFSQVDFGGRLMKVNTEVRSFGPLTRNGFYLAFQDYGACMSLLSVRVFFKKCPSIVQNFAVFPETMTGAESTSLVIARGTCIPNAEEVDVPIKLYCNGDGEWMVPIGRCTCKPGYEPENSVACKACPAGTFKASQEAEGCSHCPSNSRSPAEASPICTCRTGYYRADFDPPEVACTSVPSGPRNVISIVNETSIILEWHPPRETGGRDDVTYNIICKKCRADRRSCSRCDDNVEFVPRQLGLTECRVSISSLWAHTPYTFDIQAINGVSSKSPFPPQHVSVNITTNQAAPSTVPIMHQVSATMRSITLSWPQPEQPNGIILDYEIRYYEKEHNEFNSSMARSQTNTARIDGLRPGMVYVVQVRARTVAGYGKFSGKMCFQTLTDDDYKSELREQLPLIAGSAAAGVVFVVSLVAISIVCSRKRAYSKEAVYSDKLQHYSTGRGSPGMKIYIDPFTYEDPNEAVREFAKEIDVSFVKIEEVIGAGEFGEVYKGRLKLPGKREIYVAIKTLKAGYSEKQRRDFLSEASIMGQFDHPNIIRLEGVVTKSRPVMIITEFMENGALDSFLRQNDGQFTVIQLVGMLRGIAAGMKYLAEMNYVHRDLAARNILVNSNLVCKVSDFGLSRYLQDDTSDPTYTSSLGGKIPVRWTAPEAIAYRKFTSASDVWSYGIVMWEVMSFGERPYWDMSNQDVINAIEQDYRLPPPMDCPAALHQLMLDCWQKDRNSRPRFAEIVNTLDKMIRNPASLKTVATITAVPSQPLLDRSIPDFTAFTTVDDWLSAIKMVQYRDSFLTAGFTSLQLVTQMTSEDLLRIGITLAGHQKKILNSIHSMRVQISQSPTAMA
Jak2, sequence (O60674 whole entry, looked up): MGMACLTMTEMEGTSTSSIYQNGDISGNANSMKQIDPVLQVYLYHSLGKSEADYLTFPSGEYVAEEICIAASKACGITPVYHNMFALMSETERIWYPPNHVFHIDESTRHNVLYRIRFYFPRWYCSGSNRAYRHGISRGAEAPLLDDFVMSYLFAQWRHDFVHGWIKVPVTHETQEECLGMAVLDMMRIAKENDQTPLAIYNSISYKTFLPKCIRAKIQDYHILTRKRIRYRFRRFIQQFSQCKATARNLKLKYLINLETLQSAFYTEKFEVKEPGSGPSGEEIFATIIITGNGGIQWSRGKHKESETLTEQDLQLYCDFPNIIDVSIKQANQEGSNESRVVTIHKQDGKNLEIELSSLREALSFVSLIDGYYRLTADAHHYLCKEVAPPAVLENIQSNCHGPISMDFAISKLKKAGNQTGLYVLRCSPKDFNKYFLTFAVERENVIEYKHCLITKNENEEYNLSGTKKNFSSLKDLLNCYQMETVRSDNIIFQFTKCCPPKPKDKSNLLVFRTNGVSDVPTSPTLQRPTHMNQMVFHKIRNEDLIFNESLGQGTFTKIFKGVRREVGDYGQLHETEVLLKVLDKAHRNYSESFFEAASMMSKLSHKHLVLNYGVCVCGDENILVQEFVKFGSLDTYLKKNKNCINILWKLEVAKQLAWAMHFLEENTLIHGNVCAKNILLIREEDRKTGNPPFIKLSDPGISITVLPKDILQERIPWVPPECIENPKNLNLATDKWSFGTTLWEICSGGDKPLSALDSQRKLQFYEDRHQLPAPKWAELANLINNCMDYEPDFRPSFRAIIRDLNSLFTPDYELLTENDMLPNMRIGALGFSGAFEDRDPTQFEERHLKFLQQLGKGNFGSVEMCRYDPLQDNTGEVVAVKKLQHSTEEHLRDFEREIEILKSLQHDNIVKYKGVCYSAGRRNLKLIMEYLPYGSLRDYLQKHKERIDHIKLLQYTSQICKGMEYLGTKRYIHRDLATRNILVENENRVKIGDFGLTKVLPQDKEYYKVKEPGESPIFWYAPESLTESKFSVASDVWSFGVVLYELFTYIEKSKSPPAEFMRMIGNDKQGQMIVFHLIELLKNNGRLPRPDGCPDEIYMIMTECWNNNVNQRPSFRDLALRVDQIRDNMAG
FGFR1, sequence (P11362 whole entry, looked up): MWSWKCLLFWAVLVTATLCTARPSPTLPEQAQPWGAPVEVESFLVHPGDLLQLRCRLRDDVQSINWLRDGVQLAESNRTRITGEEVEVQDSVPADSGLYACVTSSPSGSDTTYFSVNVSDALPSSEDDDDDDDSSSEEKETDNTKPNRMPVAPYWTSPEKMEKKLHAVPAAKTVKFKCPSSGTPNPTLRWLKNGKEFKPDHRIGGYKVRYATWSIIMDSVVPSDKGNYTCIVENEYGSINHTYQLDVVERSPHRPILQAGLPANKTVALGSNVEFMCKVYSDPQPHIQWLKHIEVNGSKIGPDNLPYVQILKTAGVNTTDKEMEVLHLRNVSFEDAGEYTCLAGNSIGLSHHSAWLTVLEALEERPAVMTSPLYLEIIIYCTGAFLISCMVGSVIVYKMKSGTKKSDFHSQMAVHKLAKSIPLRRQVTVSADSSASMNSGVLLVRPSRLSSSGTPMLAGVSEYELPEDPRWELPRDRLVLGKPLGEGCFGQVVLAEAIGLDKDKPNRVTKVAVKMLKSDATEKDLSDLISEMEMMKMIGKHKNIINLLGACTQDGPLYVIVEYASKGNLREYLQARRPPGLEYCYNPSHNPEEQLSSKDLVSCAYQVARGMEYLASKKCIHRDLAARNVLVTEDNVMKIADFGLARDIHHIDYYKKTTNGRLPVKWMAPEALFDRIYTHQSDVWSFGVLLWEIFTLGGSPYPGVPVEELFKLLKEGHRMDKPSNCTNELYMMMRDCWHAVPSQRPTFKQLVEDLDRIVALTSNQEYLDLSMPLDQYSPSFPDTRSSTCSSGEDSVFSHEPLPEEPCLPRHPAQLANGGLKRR
FGFR3, sequence (P22607 whole entry, looked up): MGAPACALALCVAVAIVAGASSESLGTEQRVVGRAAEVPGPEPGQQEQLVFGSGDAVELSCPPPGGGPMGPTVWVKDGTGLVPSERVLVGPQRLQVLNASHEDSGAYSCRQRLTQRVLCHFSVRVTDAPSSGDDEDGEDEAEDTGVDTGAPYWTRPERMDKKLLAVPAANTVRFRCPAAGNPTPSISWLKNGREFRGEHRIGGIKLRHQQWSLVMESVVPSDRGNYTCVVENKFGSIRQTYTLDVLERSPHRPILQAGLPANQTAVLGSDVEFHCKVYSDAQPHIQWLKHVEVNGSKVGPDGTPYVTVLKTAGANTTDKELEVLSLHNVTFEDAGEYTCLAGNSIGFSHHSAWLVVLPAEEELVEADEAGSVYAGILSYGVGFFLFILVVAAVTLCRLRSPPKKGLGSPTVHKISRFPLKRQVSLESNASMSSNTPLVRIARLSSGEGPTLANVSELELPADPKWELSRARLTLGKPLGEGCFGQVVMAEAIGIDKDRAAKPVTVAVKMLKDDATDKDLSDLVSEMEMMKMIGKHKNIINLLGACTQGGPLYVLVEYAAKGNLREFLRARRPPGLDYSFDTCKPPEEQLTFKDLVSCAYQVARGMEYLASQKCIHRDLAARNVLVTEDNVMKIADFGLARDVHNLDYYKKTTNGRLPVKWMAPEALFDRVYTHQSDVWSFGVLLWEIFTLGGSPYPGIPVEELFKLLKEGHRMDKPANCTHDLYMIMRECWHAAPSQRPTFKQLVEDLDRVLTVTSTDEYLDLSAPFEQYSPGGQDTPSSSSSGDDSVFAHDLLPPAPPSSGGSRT
Fyn, sequence (P06241 whole entry, looked up): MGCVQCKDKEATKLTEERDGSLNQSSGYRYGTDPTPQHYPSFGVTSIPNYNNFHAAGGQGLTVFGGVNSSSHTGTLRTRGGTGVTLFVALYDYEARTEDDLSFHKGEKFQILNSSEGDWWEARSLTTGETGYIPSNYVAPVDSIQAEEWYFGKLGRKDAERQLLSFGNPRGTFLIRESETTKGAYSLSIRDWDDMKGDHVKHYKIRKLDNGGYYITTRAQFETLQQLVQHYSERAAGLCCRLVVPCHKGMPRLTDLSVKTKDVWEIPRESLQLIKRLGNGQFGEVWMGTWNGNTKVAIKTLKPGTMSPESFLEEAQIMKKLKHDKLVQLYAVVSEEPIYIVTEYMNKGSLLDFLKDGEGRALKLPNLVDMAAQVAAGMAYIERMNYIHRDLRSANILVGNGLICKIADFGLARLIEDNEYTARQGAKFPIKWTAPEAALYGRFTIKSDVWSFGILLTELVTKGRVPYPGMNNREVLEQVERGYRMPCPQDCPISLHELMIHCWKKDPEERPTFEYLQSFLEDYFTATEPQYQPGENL

| Sequence | SH2 binding enrichment (c-Src SH2) | SH2 binding enrichment (Grb2 SH2) | SH2 binding enrichment (SHP2-C SH2) | phosphorylation enrichment (Fes) | phosphorylation enrichment (Jak2) | phosphorylation enrichment (Hck) | phosphorylation enrichment (FGFR3) | phosphorylation enrichment (AncSZ) | phosphorylation enrichment (EPHB1) | phosphorylation enrichment (c-Abl (mouse)) | phosphorylation enrichment (c-Src) | phosphorylation enrichment (Fyn) | phosphorylation enrichment (FGFR1) | phosphorylation enrichment (EPHB2) | phosphorylation enrichment (MERTK) | phosphorylation enrichment (Fer (mouse)) |
| --- | --- | --- | --- | --- | --- | --- | --- | --- | --- | --- | --- | --- | --- | --- | --- | --- |
| GKTQQYECKWF [BCR_Y751_D752E_YF] | 0.488 | 0.694 | 0.529 | 1.06 | 0.793 | 0.569 | 0.627 | 0.818 | 0.509 | 0.614 | 0.472 | 0.509 | 0.545 | 0.603 | 0.467 | 0.572 |
| SHGKRYRVPSD [HHIPL2_Y395] | 0.557 | 0.887 | 0.592 | 0.413 | 0.314 | 0.274 | 0.366 | 0.379 | 0.254 | 0.337 | 0.352 | 0.395 | 0.301 | 0.274 | 0.374 | 0.285 |
| TVSSDYLHPQF [CCPG1_Y569_F566S_YF] | 0.527 | 0.848 | 0.704 | 0.927 | 0.779 | 0.444 | 0.753 | 1.8 | 0.823 | 0.877 | 0.457 | 0.404 | 0.514 | 0.538 | 0.411 | 0.495 |
| KVGRVYLFLQP [ITGA2B_Y360_E355K] | 0.48 | 0.843 | 0.724 | 1.2 | 0.983 | 0.462 | 0.768 | 1.02 | 0.558 | 0.75 | 0.362 | 0.375 | 0.404 | 0.522 | 0.391 | 0.492 |
| TSNQEYLYLSM [FGFR1_Y766_D768Y] | 0.447 | 0.812 | 0.553 | 1.31 | 3.5 | 2.67 | 8.18 | 2.64 | 2.28 | 0.975 | 2.88 | 2.08 | 12.5 | 1.83 | 5.28 | 0.845 |
| DFSLKYPTDIP [APC_Y1183_A1184P_YF] | 0.386 | 0.768 | 0.618 | 1.18 | 0.943 | 0.46 | 0.685 | 1.03 | 0.528 | 0.702 | 0.534 | 0.452 | 0.459 | 0.599 | 0.52 | 0.616 |
| FCRHNYGVGES [HLA-DRB1_Y112_V115G_YF] | 0.738 | 1.02 | 0.827 | 0.687 | 0.62 | 0.339 | 0.573 | 0.657 | 0.421 | 0.606 | 0.373 | 0.498 | 0.387 | 0.527 | 0.372 | 0.396 |
| MILSAYALGGL [CPS1_Y590_R587L] | 0.708 | 0.835 | 0.794 | 1 | 0.928 | 0.497 | 0.675 | 0.894 | 0.655 | 0.736 | 0.584 | 0.458 | 0.431 | 0.562 | 0.436 | 0.552 |
| ALMGLYHGQVL [HADHA_Y343] | 0.647 | 1.15 | 0.89 | 0.823 | 0.596 | 1.64 | 0.641 | 0.605 | 0.545 | 0.679 | 1.28 | 0.728 | 0.625 | 0.649 | 0.648 | 0.678 |
| LANNEYFFQVC | 0.611 | 0.599 | 0.888 | 2.72 | 2.29 | 0.932 | 9.36 | 3.75 | 1.55 | 1.74 | 1.35 | 1.4 | 12.8 | 0.804 | 0.933 | 0.939 |
| HSVLNYGVCVC [JAK2_Y613_L609S] | 0.584 | 0.853 | 0.929 | 1.57 | 1.17 | 0.62 | 0.84 | 0.91 | 0.87 | 0.925 | 0.595 | 0.564 | 0.674 | 0.905 | 0.482 | 0.692 |
| LTFDEYRNNSQ [ANXA3_Y216_I219N] | 0.417 | 0.654 | 0.616 | 1.24 | 1.38 | 0.443 | 0.632 | 0.762 | 0.431 | 1.13 | 0.753 | 0.675 | 0.573 | 0.682 | 0.4 | 0.553 |
| FGSLLYKFAFK [FANCD2_Y458_YF] | 0.449 | 0.983 | 0.732 | 1.09 | 0.964 | 0.37 | 0.678 | 0.91 | 0.464 | 0.726 | 0.453 | 0.306 | 0.527 | 0.445 | 0.4 | 0.336 |
| HISGVYKLPPD [ANGPTL7_Y145_R140H] | 0.459 | 0.957 | 0.925 | 1.33 | 1 | 0.718 | 0.67 | 1.79 | 0.556 | 0.697 | 2.3 | 3.26 | 0.585 | 0.6 | 0.725 | 0.618 |
| VGTKRYMASEV [ACVRL1_Y375_P378S] | 0.45 | 1.06 | 0.599 | 0.602 | 0.533 | 0.398 | 0.333 | 0.564 | 0.406 | 0.509 | 0.513 | 0.4 | 0.411 | 0.364 | 0.389 | 0.38 |
| RRNEEYCLLDS [ITK_Y198] | 0.836 | 0.75 | 0.54 | 1.64 | 1.57 | 1.1 | 1.12 | 2.25 | 1 | 0.821 | 0.805 | 1.7 | 1.15 | 1.06 | 1.26 | 0.967 |
| TGGLEYIVPLM [CLCN4_Y548] | 0.52 | 0.869 | 0.675 | 0.965 | 2.32 | 0.42 | 2.29 | 2.14 | 0.797 | 0.937 | 0.417 | 0.436 | 3 | 0.787 | 0.364 | 0.379 |

Continued, in another order:

| SH2 binding enrichment (c-Src SH2) | SH2 binding enrichment (Grb2 SH2) | SH2 binding enrichment (SHP2-C SH2) | Sequence | phosphorylation enrichment (Fes) | phosphorylation enrichment (Jak2) | phosphorylation enrichment (Hck) | phosphorylation enrichment (FGFR3) | phosphorylation enrichment (AncSZ) | phosphorylation enrichment (EPHB1) | phosphorylation enrichment (c-Abl (mouse)) | phosphorylation enrichment (c-Src) | phosphorylation enrichment (Fyn) | phosphorylation enrichment (FGFR1) | phosphorylation enrichment (EPHB2) | phosphorylation enrichment (MERTK) | phosphorylation enrichment (Fer (mouse)) |
| --- | --- | --- | --- | --- | --- | --- | --- | --- | --- | --- | --- | --- | --- | --- | --- | --- |
| 3.92 | 0.963 | 0.652 | KGYRGYSYDDI [TMEM230_Y110] | 0.774 | 0.607 | 0.395 | 0.509 | 0.756 | 0.407 | 0.547 | 0.434 | 0.425 | 0.485 | 0.424 | 0.417 | 0.393 |
| 0.508 | 0.755 | 0.754 | GKPENYRRLDI [VHL_Y175_V170G] | 0.598 | 0.539 | 0.327 | 0.376 | 0.452 | 0.317 | 0.457 | 0.353 | 0.295 | 0.335 | 0.285 | 0.337 | 0.301 |
| 0.436 | 0.917 | 0.669 | NGLVAYKDGKL [PMM2_Y76] | 0.612 | 0.528 | 0.372 | 0.448 | 0.602 | 0.341 | 0.427 | 0.423 | 0.305 | 0.431 | 0.403 | 0.429 | 0.457 |
| 0.675 | 1.2 | 0.829 | KDQPDYKFQPR [SOX9_Y172_H169Q_YF] | 0.678 | 0.491 | 0.386 | 0.529 | 0.666 | 0.348 | 0.457 | 0.434 | 0.382 | 0.422 | 0.402 | 0.46 | 0.381 |
| 0.55 | 0.756 | 0.892 | PGQRVYVVAES [SHH_Y316_R321S] | 1.45 | 1.07 | 0.748 | 0.848 | 1.06 | 0.695 | 0.896 | 0.546 | 0.538 | 0.494 | 0.507 | 0.377 | 0.728 |
| 0.75 | 0.782 | 0.606 | FGGRDYSLDEF [MYOF_Y1705_YF] | 1.18 | 0.946 | 0.473 | 0.733 | 0.964 | 0.597 | 0.68 | 0.542 | 0.401 | 0.512 | 0.602 | 0.405 | 0.493 |
| 2.96 | 19.9 | 0.728 | PTYENYANSTQ [SLC12A3_Y70_H69N] | 0.743 | 0.518 | 2.12 | 0.555 | 1.06 | 4.39 | 0.418 | 5.43 | 4.03 | 0.593 | 3.36 | 0.927 | 0.69 |
| 0.527 | 1.15 | 0.456 | RLNCIYYKDQT [RS1_Y165_W163C] | 1.16 | 1.21 | 0.889 | 0.751 | 1.01 | 0.722 | 0.897 | 1.74 | 0.878 | 0.971 | 0.639 | 1.57 | 0.497 |
| 1.11 | 1.29 | 0.826 | KMMGRYEMYAR [UPB1_Y362_T359M] | 0.711 | 0.966 | 0.51 | 0.529 | 0.711 | 0.374 | 0.367 | 0.414 | 0.333 | 0.5 | 0.551 | 0.543 | 0.302 |
| 2.62 | 1.88 | 4.43 | CTTIHYSFMCN [TP53_Y234_N235S_YF] | 1 | 0.734 | 0.559 | 0.666 | 1.08 | 0.568 | 0.828 | 0.544 | 0.563 | 0.636 | 0.572 | 0.843 | 0.942 |
| 0.497 | 0.876 | 0.667 | VSAPEYGPKLK [TBC1D14_Y46_L41V] | 0.678 | 0.556 | 0.465 | 0.504 | 0.644 | 0.452 | 0.469 | 0.369 | 0.437 | 0.476 | 0.391 | 0.394 | 0.452 |
| 1.43 | 1.79 | 1.4 | GRTNICKNKKD [SLC26A3_Y520_Y520C] | 0.973 | 1.16 | 0.482 | 0.911 | 0.631 | 0.462 | 1.39 | 0.437 | 0.331 | 0.471 | 0.447 | 0.366 | 0.448 |
| 0.486 | 0.768 | 0.541 | KEAQVYQAFRL [SUCLG2_Y343_K347R] | 0.677 | 0.661 | 14 | 0.581 | 0.576 | 1.23 | 19.6 | 11.3 | 14.2 | 0.743 | 0.62 | 4.78 | 14 |
| 3.48 | 0.828 | 0.659 | FTNRNYDLDFD [MYC_Y12_YF] | 1.42 | 1.22 | 0.634 | 0.696 | 1.36 | 0.751 | 1.01 | 0.633 | 0.5 | 0.561 | 0.587 | 0.494 | 0.543 |
| 0.54 | 1.09 | 1.48 | LWQSIYNLEAE [TNNT2_Y251] | 1.45 | 0.921 | 7.01 | 1.05 | 1.33 | 0.793 | 0.881 | 6.57 | 12.4 | 0.66 | 0.791 | 0.664 | 0.544 |
| 0.696 | 1.23 | 0.847 | HMEAVYIDIAD [PITPNA_Y140_V136M] | 2.85 | 2.26 | 2.85 | 10.2 | 3.91 | 9.76 | 1.06 | 3.62 | 3.86 | 13.6 | 5.08 | 1.43 | 8.49 |
